Consider three molecules from patent publication US20240325557A1, “TREATMENT OF CANCER” (INNATE PHARMA, priority 2020, published 2024).

For experiment [1], the target named is Rat Nectin-4 on CHO cells (rat). Description: flow cytometry titration on CHO cells expressing rat Nectin-4, median MFI (PE).
In experiment [2] the target is monomeric huNectin4-his-BirA protein (human) (UniProt Q96NY8). In words: SPR (Biacore T200), antibody captured on Protein A, monomeric huNectin4-his-BirA injected.

B1: antibody 5E7 (antibody, human IgG1, V domains shown)
VH: QVQLQQPGAELVKPGASVKLSCKASGYIFTSYWMHWVKQRPGQGLEWIGEIDPSDSYTNYNQKFKGKATLTLDKSSSTTYMQLSSLTSEDSAVYYCVRGYGNYGDYWGQGTTLTVSS
VL: DVVMTQAAFSNPVTLGTSASISCRSSKSLLHSNGITYLYWYLQKPGQSPQLLIYQMSNLASGVPDRFSSSGSGTDFTLRISRVEAEDVGVYYCAQNLELPWTFGGGTKLEIK
In experiment [1], B1 came in with an EC50 (read off the curve) of 0.1 µg/mL.

B2: antibody 10B12 (antibody, human IgG1, V domains shown)
VH: QVQLQQPGAELVKPGASVKLSCKASGYTFTSYWMHWVKQRPGQGLEWIGEIDPSDSYTNYNQKFKGKATLTVDKSSSTAYMQLSSLTSEDSAVYYCVRGYGNYGDYWGQGTTLTVSS
VL: DIVMTQAAFSNPVTLGTSASISCRSSKSLLHSNGITYLYWYLQKPGQSPQLLIYQMSNLASGVPDRFSSSGSGTDFTLRISRVEAEDVGVYYCAQNLELPWTFGGGTKLEIK
In experiment [1], B2 yielded an EC50 (read off the curve) of 0.1 µg/mL.

B3: Enfortumab (ASG-22ME) (antibody, from a related filing, V domains shown)
VH: EVQLVESGGGLVQPGGSLRLSCAASGFTFSSYNMNWVRQAPGKGLEWVSYISSSSSTIYYADSVKGRFTISRDNAKNSLSLQMNSLRDEDTAVYYCARAYYYGMDVWGQGTTVTVSS
VL: DIQMTQSPSSVSASVGDRVTITCRASQGISGWLAWYQQKPGKAPKFLIYAASTLQSGVPSRFSGSGSGTDFTLTISSLQPEDFATYYCQQANSFPPTFGGGTKVEIKR
Regarding B3, in experiment [2], the Kd is 13.7 nM, the koff is 0.0047 s⁻¹ and the kon was 340000 M⁻¹ s⁻¹.
